Assay results: the nanobody polyreactivity screen of Harvey et al. (2022)

Experiment: yeast display, Sf9 membrane polyspecificity reagent, FACS + sequencing; frameworks hold sequencing errors
Summary of the method: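 Galactose induction of a Saccharomyces cerevisiae BJ5465 synthetic nanobody display library ran 36–48 hours. The cells were then stained for 1 hour at 4 °C with 10% biotinylated, detergent-solubilized Sf9 membrane reagent, pulled down on streptavidin microbeads and FACS-sorted into low and high (top ~1%) gates on expression and reagent-binding fluorescence. Labels for polyreactivity follow the gate of origin.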

Row | Sequence | polyreactivity (PSR sort gate)
1 | QVQLVESGGGLVQAGGSLRLSCAASGRIFRIYTMVWYRQAPGKERELVAVINSSGGRTYYADSVKGRFTISRDNAQNTVYLQMNSLKPEDTAVYYCNAVFGGGTMDYWGQGTQVTVSS | high polyreactivity
2 | QDKLVESGGALVQAGGSLRISCAASGNIFSYYAMGWNRQAPGKEMDLVAAISRRGTNTYYADSVKGRFTISRDKAKNTVYLQMNSLKPEDTAVYYCASYGPYQSSYHYDYWGQGTQVTVSS | high polyreactivity
3 | QVQLVESGGGLVQAGGSLRLSCAASGSTFSGYAKGWYRQAPGKERELVAAINWNGGRTYYADSVKGRFTISRDNAKNTVYLQMNSLKPEDTAVYYCNKQSPRGRSAVYKYDYWGQGTQVTVSS | high polyreactivity
4 | QVQLVESGGGLVQAGGILRLSCAASGSTIEFNAMGWYRPAPGKERELVAAISGSGASTYYADSVKGRFTISRDNAKNTVYLQMNSLTPEDTAVYYCNADSLYYDYQTVVVQALDYWGQGTQVTVSS | low polyreactivity
5 | QVQLVESGGGLVQAGGSLRLSCAASGLILDGNVMGWYRQAPGKERELVAAINTSGGSTYYADSVKGRFTISRDNAKNTVYLQMNSLKPEDTAVYYCAARYPSDYDYWGQGTQVTVSS | low polyreactivity
6 | QVQLVESGGGLVQAGGSLRLSCAASGCIFYPYAMGWYRQAPGKERELVAAITYSGGSTYADSVKGRFTISRDNAKNTVYLQMNSLKPEDTAVYYCNAKFYFYGGTYIVKYDYWGQGTQVTVSS | high polyreactivity
7 | QVQLVESRGGLVQAGGSLRLSCAASGSTFYRYAMAWYRQAPGKERELVARINTGGSTSYADSVKGRFTISRDNAKNTVYLQMNILKPEDTAVYYCAASSRYAVFGRYYYCGQGTQVTVSS | high polyreactivity
8 | QVQLVESGRGLDQAGGSLRLSCAASGSIIGANAMGWYRQAPGKERELVAAITDNTSTTFYADSVKGRFTISRDNAKNTVYLQMNSLKPEDTAVYYCNADRAVVLSTTVWGEYDYWGQGTQVTVSS | low polyreactivity
9 | QVQLVESGGGLVQAGGSLRLSCAASGRTIGGYAMGWYRQAPGKEREMVAAINYSGGTTYYADSVKGRFTISRDNAKNTVYLQMNSLKPEDTAVYYCIRDYHSESGNPGYQYGYWGQGTQVTVSS | high polyreactivity
10 | QVQLVESGGGFVQAGGSLRLSCASSGRTFHYYAMGWYRQAPGKERELVAAISFDGGTTYYADSVKGRFTISRDNAKNTVYLHMNSPKPEDTAVYYCNALRYRDRVGYNYWGQGTQVTVSS | high polyreactivity
11 | QVQLVESGGGLVQAGGSLRLSCAASVKIFAWYALGWYRKAPGKEMELVADISSRGGSTYYADSVKGRFTISRDNAKNTVYLQMNSLKPEDTAVYYCAAVWYWTQDYDYWGQGTQVTGSS | low polyreactivity
12 | QVQLVESGGGLVQAGGSLRLSCAASGSIFSPYAMGWYRQAPGKERELVAAISYGVGNTYYADSVKGRFTISRDNAKNTVYLQMNSLKPEDTAVYYCAAEEYDYVYPHYFTKGYYWGQGTQVTVSS | high polyreactivity
13 | QVQLEESGGGLVQAGGSLRLSCAASGSTFSGYAMGWYIPAPGKERELVATIRRGGSTYADSVKGRFTISRDNAKNTVYLQMNSLKPEDTAVYYCAADAYVSSQPMDYWGQGTQVTVSS | high polyreactivity
14 | QVQLVESGGGLVQAGGSLRLSCAASGSTFAQYAMGWYRQPPRKERELVAAISRRGASTYYADSVKGLFTISRDIAKNTVYLQMNSLKPEDTAVYYCNAVRGEKMGYWGQGTQVTVSS | high polyreactivity
15 | QVQLVESGGGLVQAGGSLRLSCAASGLIFISYAMGWYRQAPGKERELVAAITSTVGGTYYADSVKGRFTISRDNAKNTVYLQMNSLQPEDTAVYYCAKEVWTWGPYYYWGQGTQVTVSS | low polyreactivity
16 | QVQLVESGGGLVQAGGSLRLSCAASGRTFTRYAMGWYRQAPGKERELVATITRGGSTNYADSVKGRFTISRDNSKNTVYLQMNSLKPEDTAVYYCAAGYFIRTRSRYRYDYWGQGTQVTVSS | high polyreactivity
17 | QVQLVESGGGLVQAGGSLRLSCAASGRTFWVYAMGWYRQAPGKEREFVAAISGSVGSTYYADSVKGRFTISRDNAMKTVYLQMNSLKPEDTAVYYCAARQRRSEYGYWGQGTQVTVSS | high polyreactivity
18 | QVHLVESGGGLVQAGGRLRLSCAASGNTFYQYAMGWYRQAPGKERELVAAISSSGGSTYYADTVKGRFTISRDNAKNTVYLQMNSLKPEDTGVYYCATDKWYGYYYWGQGTQVTVSS | low polyreactivity
19 | QVQLVESGGGLEQAGGSLRLSCAASGLTFSAYVMAWYRLAPGKERELVAAISRRGGSTYYAYSVKGRFTISRDNAKNTVYLQMNSLKPEDTAVYYCAARKVAVRGYGYWGQGTQVTVSS | high polyreactivity
20 | QDQLVESGGGLVQAGGSLRLSCAASGRIFVVYAMGCYRQAPGKERELVAAITGGGRTNYADSVKGRFTISRENAKNTVYLQMKSLKPEDTAVYYCAAGTRSDARRYFYWGQGTQVTVSS | low polyreactivity
21 | QVQLVESGGGLVQAGGSLRLSCAASGSTFYDSAMGWYRQAPGKERELVAAINWSSDTTYYADSVKGRFTISRDNAKNTVYLQMNSLKPEDTAVYYCATDSAYRGYDYWGQGTQVNVSS | low polyreactivity
22 | QVQLVESGGGLVQAGGSLRLSCAASGFTFVYNAMGWYRQAPGKERELVAAISSRGGSTFYADSVKGRFTISRDNAKNTVYLQMNSLKPEDTAVYYCNAVPGWTYDYWGQGTQVTVSS | high polyreactivity

Row | Sequence | polyreactivity (PSR sort gate)
23 | QVQLVESGGGLVQAGGSLRLSCAASGSIFPYYAMGWYRPAPGTERELVAAISRGGGTTYYADSVKGRFTISRDNAKNTVYLQMNSLKPEDTAVYYCAARQWRISTPYDYWGQGTQVTVSS | high polyreactivity
24 | QVQLVESGGGLVQAGGSLRLSCAASGRILPGYAMGWYRQAPGKERELVAAIRGNGDSTYYADSVKGRFTISRDNAKNTVYLQMNSLKPEDTAVYFCAARRVSTIARDSYRGRKYGYWGQGTQVTVSS | low polyreactivity
25 | QVQLVESGGGLVQAGGSLRLSCAASGRTFDRYAMGWYRQAPGKERELVAAITWSGGRTYYADSVKGRFTISRDNAKNTVYLQMNSLKPEDTAVYYCAADDPRDHWYTAMDYWGQGTQVTVSS | low polyreactivity
26 | QVQLVDSGGGLVQAGGSLRLSCAASGITFYFNAMGWYRQAPGKERELVAAITRGGRTNYADSVKGRFTISRDNAKNTVYLQMNSLKPEDTAFYYCAAYIYRGRETNGPDYYYWGQGTQVTVSS | low polyreactivity
27 | QVQLVESGGGLVQAGGSLRLSCAASGNIFAWYAMGGYRQAPGKERELVADISSRGGSTSYADSVKGRFTISRDNAKKTVYLQMNSLKPEDTAVYYCAASYYYPFEYYYWGQGTQVTVSS | low polyreactivity
28 | QVQLVESGGGLVQAGGSLRLSCAASGFTLWLYAMGWYRQAPGKERELVATISYRGDSTYYADSVKGRFTISRDNAKNTVYLQMNSLKPEDTAVYYCARRYTHTGRYYYWGQGTQVTVSS | high polyreactivity
29 | QVHLVESGGGLVQAGGSLRLSCAASGSTFDVYAMGWYRQAPRKERELVAVINTSGTRTYYADSVKGRFTISRDNAKNSVYLLMNSLKPEDTAVSYCNAGGNLEMIYWGQGTQVTVSS | low polyreactivity
30 | QVQLVESGGGLVQAGGSLRLSCAASGSTFFDYAMGWYRQAPGKERELVAAISRSGDTNYADSVKGRFTMSRDNAKNTVYLHMNSLKPEDTAVYYCAKYWAYRRHWVGFYYWGQGTLVTVSS | low polyreactivity
31 | QVQIVESGGGLVQAGGSLRLSCAASGITFVGNAMVWYRQAPGKERELVAVISRGDSTNYADSVKGLFTISRDNAKNTVYLQMNSLKPEDTAVYYCAADGSRAGQEGNDYWGQGTQVSVSS | low polyreactivity
32 | QVKLVESGGGLVQAGGSLRLSCAASGITFVSYAMGWYTQAPGKEREFVAAINRSGGSTYYADSVKGRFTISRDNAKNTVYLQMNSLKPEDTAVYYCAARRNLAYYHSGYWGQGTQVTVSS | high polyreactivity
33 | QVQLVESGGGIVQAGGSLRLSCAATGSIFGNYAMGWYRQAPGKERELVAAITSSGGTYYADSVKGRFTISRDNAKNTVYLQMNSLKPEDTAVYYCAARYYSYRHQSVKYGYWGQGTQVTVSS | high polyreactivity
34 | QVQLVESGGGLVQAGGSLRLSCAASGRILYIYAMGWYRQAPGKERELVASISWTDGSTYYADSVKGRFTISRDNAKNTVYLQMNSLKPEDTAVYYCNAAYYYYWELKKYNYWGPGTQVTVSS | low polyreactivity
35 | QVLLVESGGGLVQAGGILRLSCAASGLTFTYYAMGWYRQAPGKERELVAAISRCGTGTYYADSVKGRFTISRDNAKNTVYLHMNSLKPEDTAVYYCATLPGRYFTANEYWGQGTQVTVSS | high polyreactivity
36 | QVQLVESGGGLVQAGGSLRLRCAAYGSNFVLNAMGLDRKAPGKERELVAAISRGGASTYYADSVKGRFTIARDNSKNTVYLQMTSLKPEDTAVYYCNASGYGQGVVIYLVLYDYWGQGTQVTVSS | low polyreactivity
37 | QVQLVESGGGLVQAGGSLRLSCAASGITFYGYAMAWYRQAPGKERELVATITSGGSTYYADSVKGRFTISRDNAKNTVYLQMNSLKPEDTAVYYCAASRWYRRTRYGYWGQGTQVTVSS | high polyreactivity
38 | QVQLVESGGGLVQAGGSLRLSCAASGSIFYYYAMGWYRQAPGKEREFVATIRRSGASTYYADSVKGRFTISRDNAKNTVYLQMNSLKPEDTAVYYCNAASARRPIYEAARWSKYDYWGQGTQVTVSS | low polyreactivity
39 | QVQLVESGGGLVQAGGSLRLSCAASGSIFEYYAMGWYRQAPGKERELVATITGTDSTYYADSVKGRFTISRDNAKNTVYLQMNSLKPEDTADCAADRAASRPDYDYWGQGTQVTVSS | low polyreactivity
40 | QVQLVESGGGLVQAGGSLRLSCAASGNTFTAYAMGWYRQAPGKERELVAAISSSGRTNYADSVKGRFTISRDNAKNTVYLQMNSLKPEDTAVYYCAAYRLSKPFYKYDYWGEGTQVTVSS | high polyreactivity
41 | KVQLVESGGGLVQEGGSLPLSCAASGRTFDYNTMGWYRQAPGKERELVAAISSRGDSTYYADSVKGLFTISRDKAKNTVYLQMNSLNPEDTAVYYCAARYYPGRGFGYGYWGQGTQVTVSS | high polyreactivity
42 | QVKLVESRGGLVQAGGSLRLSCAASARIFVHNAKGCYRQAPGKAREFDAAITRRGGSTYADSVKGRFRISRDNAKNTVYLQMTSLKPEDTAVYYCNAESYYGIFRYNYDYWGQGTQVTVSS | high polyreactivity
43 | QVQLVESGGGLVQAGGSLRLSCAASGLIFYYYAIGWYRQAPGKERELVAAITTGGGTYYADSVKGRFSISRVNAKNTVYLQMNSLKPEDTAVYYCAVYYRSYWGYEYWGQGTQVTVSS | high polyreactivity
